Data from US20110177077A1.

Assays:
[1] = biological target: human PAX 5 protein (human) (UniProt Q02548); assay: IHC, Reed Sternberg cells, Hodkins lymphoma 1, antibody at 3 ug/mL
[2] = biological target: human PAX 5 protein (human) (UniProt Q02548); assay: IHC, Reed Sternberg cells, Hodkins lymphoma 2, antibody at 3 ug/mL
[3] = biological target: human PAX 5 protein (human) (UniProt Q02548); assay: IHC, Reed Sternberg cells, Hodkins lymphoma 3, antibody at 3 ug/mL
[4] = biological target: human PAX 5 protein (human) (UniProt Q02548); assay: IHC, Reed Sternberg cells, Hodkins lymphoma 4, antibody at 3 ug/mL

Chain of UniProt Q02548 (Q02548 whole entry): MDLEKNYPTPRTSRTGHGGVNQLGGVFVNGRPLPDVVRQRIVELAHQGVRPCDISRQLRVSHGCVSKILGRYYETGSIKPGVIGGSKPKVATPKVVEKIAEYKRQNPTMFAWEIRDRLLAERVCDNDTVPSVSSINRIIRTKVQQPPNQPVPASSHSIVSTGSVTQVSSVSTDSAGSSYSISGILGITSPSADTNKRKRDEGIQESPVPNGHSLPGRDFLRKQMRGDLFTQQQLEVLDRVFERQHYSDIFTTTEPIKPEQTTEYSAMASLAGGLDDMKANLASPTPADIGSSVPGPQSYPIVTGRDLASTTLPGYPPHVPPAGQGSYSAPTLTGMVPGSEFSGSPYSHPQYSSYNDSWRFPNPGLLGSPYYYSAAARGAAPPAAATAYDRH

| IHC staining intensity score (score on a scale of 0 to 6) [1] | IHC staining intensity score (score on a scale of 0 to 6) [2] | IHC staining intensity score (score on a scale of 0 to 6) [3] | IHC staining intensity score (score on a scale of 0 to 6) [4] | Substance |
| --- | --- | --- | --- | --- |
| 2 | 0 | 1 | 2 | monoclonal mouse PAX 5, clone 24 (BD Biosciences) (antibody) |
| 6 | 0 | 2 | 6 | monoclonal mouse B-Cell Specific Activator Protein (BSAP), clone DAK-Pax5 (antibody) |
